# From IntAct's records for PubMed 22087322
# B1: Interleukin-10 receptor subunit alpha (Homo sapiens), Q13651 (parent)
# chain: MLPCLVVLLAALLSLRLGSDAHGTELPSPPSVWFEAEFFHHILHWTPIPNQSESTCYEVALLRYGIESWNSISNCSQTLSYDLTAVTLDLYHSNGYRARVRAVDGSRHSNWTVTNTRFSVDEVTLTVGSVNLEIHNGFILGKIQLPRPKMAPANDTYESIFSHFREYEIAIRKVPGNFTFTHKKVKHENFSLLTSGEVGEFCVQVKPSVASRSNKGMWSKEECISLTRQYFTVTNVIIFFAFVLLLSGALAYCLALQLYVRRRKKLPSVLLFKKPSPFIFISQRPSPETQDTIHPLDEEAFLKVSPELKNLDLHGSTDSGFGSTKPSLQTEEPQFLLPDPHPQADRTLGNREPPVLGDSCSSGSSNSTDSGICLQEPSLSPSTGPTWEQQVGSNSRGQDDSGIDLVQNSEGRAGDTQGGSALGHHSPPEPEVPGEEDPAAVAFQGYLRQTRCAEEKATKTGCLEEESPLTDGLGPKFGRCLVDEAGLHPPALAKGYLKQDPLEMTLASSGAPTGQWNQPTEEWSLLALSSCSDLGISDWSFAHDLAPLGCVAAPGGLLGSFNSDLVTLPLISSLQSSE
# B2: Interleukin-10 receptor subunit alpha (Mus musculus), Q61727 (parent)
# chain: MLSRLLPFLVTISSLSLEFIAYGTELPSPSYVWFEARFFQHILHWKPIPNQSESTYYEVALKQYGNSTWNDIHICRKAQALSCDLTTFTLDLYHRSYGYRARVRAVDNSQYSNWTTTETRFTVDEVILTVDSVTLKAMDGIIYGTIHPPRPTITPAGDEYEQVFKDLRVYKISIRKFSELKNATKRVKQETFTLTVPIGVRKFCVKVLPRLESRINKAEWSEEQCLLITTEQYFTVTNLSILVISMLLFCGILVCLVLQWYIRHPGKLPTVLVFKKPHDFFPANPLCPETPDAIHIVDLEVFPKVSLELRDSVLHGSTDSGFGSGKPSLQTEESQFLLPGSHPQIQGTLGKEESPGLQATCGDNTDSGICLQEPGLHSSMGPAWKQQLGYTHQDQDDSDVNLVQNSPGQPKYTQDASALGHVCLLEPKAPEEKDQVMVTFQGYQKQTRWKAEAAGPAECLDEEIPLTDAFDPELGVHLQDDLAWPPPALAAGYLKQESQGMASAPPGTPSRQWNQLTEEWSLLGVVSCEDLSIESWRFAHKLDPLDCGAAPGGLLDSLGSNLVTLPLISSLQVEE
# Variants of: B1
# Details: with fbw1a_human BTRC
row,Variant,effect of a mutation on the interaction
1,MLPCLVVLLAALLSLRLGSDAHGTELPSPPSVWFEAEFFHHILHWTPIPNQSESTCYEVALLRYGIESWNSISNCSQTLSYDLTAVTLDLYHSNGYRARVRAVDGSRHSNWTVTNTRFSVDEVTLTVGSVNLEIHNGFILGKIQLPRPKMAPANDTYESIFSHFREYEIAIRKVPGNFTFTHKKVKHENFSLLTSGEVGEFCVQVKPSVASRSNKGMWSKEECISLTRQYFTVTNVIIFFAFVLLLSGALAYCLALQLYVRRRKKLPSVLLFKKPSPFIFISQRPSPETQDTIHPLDEEAFLKVSPELKNLDLHGSTDAGFGATKPSLQTEEPQFLLPDPHPQADRTLGNREPPVLGDSCSSGSSNSTDAGICLQEPSLSPSTGPTWEQQVGSNSRGQDDSGIDLVQNSEGRAGDTQGGSALGHHSPPEPEVPGEEDPAAVAFQGYLRQTRCAEEKATKTGCLEEESPLTDGLGPKFGRCLVDEAGLHPPALAKGYLKQDPLEMTLASSGAPTGQWNQPTEEWSLLALSSCSDLGISDWSFAHDLAPLGCVAAPGGLLGSFNSDLVTLPLISSLQSSE [S319A;S323A;S370A],disrupting interaction strength
2,MLPCLVVLLAALLSLRLGSDAHGTELPSPPSVWFEAEFFHHILHWTPIPNQSESTCYEVALLRYGIESWNSISNCSQTLSYDLTAVTLDLYHSNGYRARVRAVDGSRHSNWTVTNTRFSVDEVTLTVGSVNLEIHNGFILGKIQLPRPKMAPANDTYESIFSHFREYEIAIRKVPGNFTFTHKKVKHENFSLLTSGEVGEFCVQVKPSVASRSNKGMWSKEECISLTRQYFTVTNVIIFFAFVLLLSGALAYCLALQLYVRRRKKLPSVLLFKKPSPFIFISQRPSPETQDTIHPLDEEAFLKVSPELKNLDLHGSTDAGFGATKPSLQTEEPQFLLPDPHPQADRTLGNREPPVLGDSCSSGSSNSTDSGICLQEPSLSPSTGPTWEQQVGSNSRGQDDSGIDLVQNSEGRAGDTQGGSALGHHSPPEPEVPGEEDPAAVAFQGYLRQTRCAEEKATKTGCLEEESPLTDGLGPKFGRCLVDEAGLHPPALAKGYLKQDPLEMTLASSGAPTGQWNQPTEEWSLLALSSCSDLGISDWSFAHDLAPLGCVAAPGGLLGSFNSDLVTLPLISSLQSSE [S319A;S323A],decreasing interaction strength
3,MLPCLVVLLAALLSLRLGSDAHGTELPSPPSVWFEAEFFHHILHWTPIPNQSESTCYEVALLRYGIESWNSISNCSQTLSYDLTAVTLDLYHSNGYRARVRAVDGSRHSNWTVTNTRFSVDEVTLTVGSVNLEIHNGFILGKIQLPRPKMAPANDTYESIFSHFREYEIAIRKVPGNFTFTHKKVKHENFSLLTSGEVGEFCVQVKPSVASRSNKGMWSKEECISLTRQYFTVTNVIIFFAFVLLLSGALAYCLALQLYVRRRKKLPSVLLFKKPSPFIFISQRPSPETQDTIHPLDEEAFLKVSPELKNLDLHGSTDSGFGSTKPSLQTEEPQFLLPDPHPQADRTLGNREPPVLGDSCSSGSSNSTDAGICLQEPSLSPSTGPTWEQQVGSNSRGQDDSGIDLVQNSEGRAGDTQGGSALGHHSPPEPEVPGEEDPAAVAFQGYLRQTRCAEEKATKTGCLEEESPLTDGLGPKFGRCLVDEAGLHPPALAKGYLKQDPLEMTLASSGAPTGQWNQPTEEWSLLALSSCSDLGISDWSFAHDLAPLGCVAAPGGLLGSFNSDLVTLPLISSLQSSE [S370A],decreasing interaction strength

# Variants of: B2
# Details: with fbw1a_human BTRC
row,Variant,effect of a mutation on the interaction
1,MLSRLLPFLVTISSLSLEFIAYGTELPSPSYVWFEARFFQHILHWKPIPNQSESTYYEVALKQYGNSTWNDIHICRKAQALSCDLTTFTLDLYHRSYGYRARVRAVDNSQYSNWTTTETRFTVDEVILTVDSVTLKAMDGIIYGTIHPPRPTITPAGDEYEQVFKDLRVYKISIRKFSELKNATKRVKQETFTLTVPIGVRKFCVKVLPRLESRINKAEWSEEQCLLITTEQYFTVTNLSILVISMLLFCGILVCLVLQWYIRHPGKLPTVLVFKKPHDFFPANPLCPETPDAIHIVDLEVFPKVSLELRDSVLHGSTDAGFGAGKPSLQTEESQFLLPGSHPQIQGTLGKEESPGLQATCGDNTDSGICLQEPGLHSSMGPAWKQQLGYTHQDQDDSDVNLVQNSPGQPKYTQDASALGHVCLLEPKAPEEKDQVMVTFQGYQKQTRWKAEAAGPAECLDEEIPLTDAFDPELGVHLQDDLAWPPPALAAGYLKQESQGMASAPPGTPSRQWNQLTEEWSLLGVVSCEDLSIESWRFAHKLDPLDCGAAPGGLLDSLGSNLVTLPLISSLQVEE [S320A;S324A],decreasing interaction strength
2,MLSRLLPFLVTISSLSLEFIAYGTELPSPSYVWFEARFFQHILHWKPIPNQSESTYYEVALKQYGNSTWNDIHICRKAQALSCDLTTFTLDLYHRSYGYRARVRAVDNSQYSNWTTTETRFTVDEVILTVDSVTLKAMDGIIYGTIHPPRPTITPAGDEYEQVFKDLRVYKISIRKFSELKNATKRVKQETFTLTVPIGVRKFCVKVLPRLESRINKAEWSEEQCLLITTEQYFTVTNLSILVISMLLFCGILVCLVLQWYIRHPGKLPTVLVFKKPHDFFPANPLCPETPDAIHIVDLEVFPKVSLELRDSVLHGSTDAGFGAGKPSLQTEESQFLLPGSHPQIQGTLGKEESPGLQATCGDNTDAGICLQEPGLHSSMGPAWKQQLGYTHQDQDDSDVNLVQNSPGQPKYTQDASALGHVCLLEPKAPEEKDQVMVTFQGYQKQTRWKAEAAGPAECLDEEIPLTDAFDPELGVHLQDDLAWPPPALAAGYLKQESQGMASAPPGTPSRQWNQLTEEWSLLGVVSCEDLSIESWRFAHKLDPLDCGAAPGGLLDSLGSNLVTLPLISSLQVEE [S320A;S324A;S367A],disrupting interaction strength
